In doi:10.1101/2020.03.30.016881 (bioRxiv, 2020):
No end group written: not given here. TMR = tetramethylrhodamine (5,6-carboxy TMR) linked to N-terminus

Target: E. coli DnaK (Hsp70), unlabelled (E. coli, UniProt P0A6Y8 1-638)
Assay: fluorescence polarisation

Chain of E. coli DnaK (Hsp70), unlabelled (P0A6Y8 whole entry): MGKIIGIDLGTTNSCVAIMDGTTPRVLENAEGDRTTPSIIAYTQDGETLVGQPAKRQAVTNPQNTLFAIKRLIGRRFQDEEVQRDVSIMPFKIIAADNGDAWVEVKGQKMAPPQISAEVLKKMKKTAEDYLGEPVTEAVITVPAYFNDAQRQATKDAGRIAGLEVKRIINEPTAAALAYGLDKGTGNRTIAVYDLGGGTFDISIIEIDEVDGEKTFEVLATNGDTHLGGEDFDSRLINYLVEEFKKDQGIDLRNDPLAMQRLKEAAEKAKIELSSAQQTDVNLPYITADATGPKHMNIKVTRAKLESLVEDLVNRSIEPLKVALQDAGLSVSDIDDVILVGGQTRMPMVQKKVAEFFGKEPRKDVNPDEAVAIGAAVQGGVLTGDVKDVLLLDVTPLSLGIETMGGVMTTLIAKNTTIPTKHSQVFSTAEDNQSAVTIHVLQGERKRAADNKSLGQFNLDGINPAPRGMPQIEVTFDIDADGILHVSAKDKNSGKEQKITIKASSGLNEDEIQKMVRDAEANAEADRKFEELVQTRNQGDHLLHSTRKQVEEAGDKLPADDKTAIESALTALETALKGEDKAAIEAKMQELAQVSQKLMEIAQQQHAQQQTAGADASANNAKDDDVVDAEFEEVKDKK

{TMR}-KCNTATCATQRLANFLVHSSNNFGAILSSTNVGSNTY (ends and bridges not checked) [TMR-IAPP (human IAPP labelled with tetramethylrhodamine at the N-terminus)] was tested. Which Kd did it give?
The Kd was 2100 ± 900 nM.
